Experimental data: article PMC11417369, “DNA sequence and chromatin differentiate sequence-specific transcription factor binding in the human malaria parasite Plasmodium falciparum”
Substitutions are numbered along the chain they refer to.

T1: PF3D7_0420300 D1 (Plasmodium falciparum, UniProt Q8I1N6 1956-2015)
T1 sequence: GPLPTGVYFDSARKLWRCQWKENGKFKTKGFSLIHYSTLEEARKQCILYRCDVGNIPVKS

B1: CACACA_negctrl_site754 (dsDNA)
DNA 1: TATATTTGTACATGATATTTTTTTTTTCTTTTAAAA
DNA 2: TTTTAAAAGAAAAAAAAAATATCATGTACAAATATA
B2: CACACA_negctrl_site942 (dsDNA)
DNA 1: ATATTATGAAGGGATATTTTCAAAAATATTAGGAGA
DNA 2: TCTCCTAATATTTTTGAAAATATCCCTTCATAATAT
B3: CACACA_negctrl_site1632 (dsDNA)
DNA 1: AATTCACATGTGAACTAAAAGAATATTATATATATA
DNA 2: TATATATATAATATTCTTTTAGTTCACATGTGAATT
B4: CACACA_negctrl_site1797 (dsDNA)
DNA 1: AGATTATATATATGTATATATGTATATATTTATATA
DNA 2: TATATAAATATATACATATATACATATATATAATCT
B5: CACACA_negctrl_site461 (dsDNA)
DNA 1: AGATATAGGAAAATAATATATATATATTTTTTTTTT
DNA 2: AAAAAAAAAATATATATATATTATTTTCCTATATCT
B6: CACACA_negctrl_site1462 (dsDNA)
DNA 1: ATTTCTTTTTTTTTTTTTTTTAATGTAAAACATTTT
DNA 2: AAAATGTTTTACATTAAAAAAAAAAAAAAAAGAAAT
B7: CACACA_site518 (dsDNA)
DNA 1: ATAATTAACAAATACACACACACACCCCCACAAAAA
DNA 2: TTTTTGTGGGGGTGTGTGTGTGTATTTGTTAATTAT
B8: CACACA_negctrl_site899 (dsDNA)
DNA 1: AATAAATAAATAAATATATATATATATATATATATG
DNA 2: CATATATATATATATATATATATTTATTTATTTATT
B9: CACACA_site8059 (dsDNA)
DNA 1: CATACATATAAACACACACACACACCCACCCACAAA
DNA 2: TTTGTGGGTGGGTGTGTGTGTGTGTTTATATGTATG
B10: CACACA_site240 (dsDNA)
DNA 1: TTTATTTATTAATACACACACACACCCCCACAAAAT
DNA 2: ATTTTGTGGGGGTGTGTGTGTGTATTAATAAATAAA
B11: CACACA_site8069 (dsDNA)
DNA 1: ACATAATTAACAAATACACACACACCCACCCACAAA
DNA 2: TTTGTGGGTGGGTGTGTGTGTATTTGTTAATTATGT
B12: CACACA_site638 (dsDNA)
DNA 1: AATACACGCAAACACACACACACACCCACATATATA
DNA 2: TATATATGTGGGTGTGTGTGTGTGTTTGCGTGTATT
B13: CACACA_site6306 (dsDNA)
DNA 1: AGCACACGCAGACACACACACACACGCACACGCACA
DNA 2: TGTGCGTGTGCGTGTGTGTGTGTGTCTGCGTGTGCT
B14: CACACA_site7104 (dsDNA)
DNA 1: B12 DNA 1 with T3C, A6G, A11G, C26G
DNA 2: B12 DNA 2 with G11C, T26C, T31C, A34G
B15: CACACA_site2625 (dsDNA)
DNA 1: AAATAAATGAAACACACACACACAAAAAAAAAAAAC
DNA 2: GTTTTTTTTTTTTGTGTGTGTGTGTTTCATTTATTT
B16: CACACA_site639 (dsDNA)
DNA 1: AAAATACACGCATACACACACACACCCACCCATATA
DNA 2: TATATGGGTGGGTGTGTGTGTGTATGCGTGTATTTT
B17: CACACA_site492 (dsDNA)
DNA 1: TAAACATACATATACACACACACACCCACACCCACA
DNA 2: TGTGGGTGTGGGTGTGTGTGTGTATATGTATGTTTA
B18: CACACA_site6305 (dsDNA)
DNA 1: CACACGCACGAACACACACACACACGCACGCACATA
DNA 2: TATGTGCGTGCGTGTGTGTGTGTGTTCGTGCGTGTG
B19: CACACA_site2917 (dsDNA)
DNA 1: ACCATACATACATACACACACACACCCATATATATA
DNA 2: TATATATATGGGTGTGTGTGTGTATGTATGTATGGT
B20: CACACA_site366 (dsDNA)
DNA 1: CACACCCACCAACACACACACACACCCACCCATATA
DNA 2: TATATGGGTGGGTGTGTGTGTGTGTTGGTGGGTGTG
B21: CACACA_site1736 (dsDNA)
DNA 1: ATAGTATACAGACACACACACACACCCATATATATA
DNA 2: TATATATATGGGTGTGTGTGTGTGTCTGTATACTAT
B22: CACACA_site8057 (dsDNA)
DNA 1: ATTAAACATACATATACACACACACCCACCCACCCA
DNA 2: TGGGTGGGTGGGTGTGTGTGTATATGTATGTTTAAT
B23: CACACA_site2752 (dsDNA)
DNA 1: CAAACATATTAATGTACACACACCCACCCACAAACA
DNA 2: TGTTTGTGGGTGGGTGTGTGTACATTAATATGTTTG
B24: CACACA_site8742 (dsDNA)
DNA 1: TTATGTTCTTTAAAACCACACACCCCCCAACCCCCC
DNA 2: GGGGGGTTGGGGGGTGTGTGGTTTTAAAGAACATAA
B25: CACACA_site7867 (dsDNA)
DNA 1: AAGGATATAACATACACACACACACGGATATAAATA
DNA 2: TATTTATATCCGTGTGTGTGTGTATGTTATATCCTT
B26: CACACA_site9187 (dsDNA)
DNA 1: AAAAAAAAAATACATACACACACACCCACCCATATA
DNA 2: TATATGGGTGGGTGTGTGTGTATGTATTTTTTTTTT
B27: CACACA_site494 (dsDNA)
DNA 1: B9 DNA 1 with T9G
DNA 2: B9 DNA 2 with A28C
B28: CACACA_site6309 (dsDNA)
DNA 1: B13 DNA 1 with G2C, C3A, A4T, C7A
DNA 2: B13 DNA 2 with G30T, T33A, G34T, C35G
B29: CACACA_site6364 (dsDNA)
DNA 1: ATAATCCTTAGACACACACACACACGAATAAATAAA
DNA 2: TTTATTTATTCGTGTGTGTGTGTGTCTAAGGATTAT
B30: CACACA_site6496 (dsDNA)
DNA 1: TATTAAACTTGACACACACACACACGCATATATAAA
DNA 2: TTTATATATGCGTGTGTGTGTGTGTCAAGTTTAATA
B31: CACACA_site466 (dsDNA)
DNA 1: CAAAAAAAATAAAACACACACACAAAAAAATAAAAA
DNA 2: TTTTTATTTTTTTGTGTGTGTGTTTTATTTTTTTTG
B32: CACACA_site7644 (dsDNA)
DNA 1: AAAAAATACAGACACACACACACACGCATATAAATA
DNA 2: TATTTATATGCGTGTGTGTGTGTGTCTGTATTTTTT
B33: CACACA_site7364 (dsDNA)
DNA 1: AAAAAAAAAAAAAACACACACACACGCATACACATA
DNA 2: TATGTGTATGCGTGTGTGTGTGTTTTTTTTTTTTTT
B34: CACACA_site5271 (dsDNA)
DNA 1: TATAAATACAGATACACACACACACCGATATATATA
DNA 2: TATATATATCGGTGTGTGTGTGTATCTGTATTTATA
B35: CACACA_site370 (dsDNA)
DNA 1: ATCAAGCACCAACACACACACACACCCCCACCCACA
DNA 2: TGTGGGTGGGGGTGTGTGTGTGTGTTGGTGCTTGAT
B36: CACACA_site6531 (dsDNA)
DNA 1: AATAAATTTAGACACACACACACATATAAATAAATA
DNA 2: TATTTATTTATATGTGTGTGTGTGTCTAAATTTATT
B37: CACACA_site6342 (dsDNA)
DNA 1: AAAAAAAACAGACACACACACAAATATTTATATATC
DNA 2: GATATATAAATATTTGTGTGTGTGTCTGTTTTTTTT
B38: CACACA_site5102 (dsDNA)
DNA 1: GAGAAAAATAAATACACACACATAAATAAATACATA
DNA 2: TATGTATTTATTTATGTGTGTGTATTTATTTTTCTC
B39: CACACA_site8411 (dsDNA)
DNA 1: AAAAAAAAAAAACACACACACACACCGACAAAATAT
DNA 2: ATATTTTGTCGGTGTGTGTGTGTGTTTTTTTTTTTT
B40: CACACA_site2906 (dsDNA)
DNA 1: AATATAAATAAACACACACACATATATATATATATT
DNA 2: AATATATATATATATGTGTGTGTGTTTATTTATATT
B41: CACACA_site5111 (dsDNA)
DNA 1: TATTTATAAATTTACACACACACATGGGAACATAAA
DNA 2: TTTATGTTCCCATGTGTGTGTGTAAATTTATAAATA
B42: CACACA_site7431 (dsDNA)
DNA 1: CTTGTCATTTTGCACACACACATGTATAGGTTATTA
DNA 2: TAATAACCTATACATGTGTGTGTGCAAAATGACAAG
B43: CACACA_site6794 (dsDNA)
DNA 1: B33 DNA 1 with C33A, T35A, A36T
DNA 2: B33 DNA 2 with T1A, A2T, G4T
B44: CACACA_site1251 (dsDNA)
DNA 1: TACAATTTAAAACACACACACAATAATACATATATA
DNA 2: TATATATGTATTATTGTGTGTGTGTTTTAAATTGTA

Molecular target: T1, PF3D7_0420300 D1
Assay: gcPBM; about 25 ug protein; PBS, 1% milk, 0.2 mg/ml BSA, salmon testes DNA, 0.03% Triton X-100
Conditions: tags: N-terminal GST (pGEX-4T-1), kept; label: surface-attached array probe

Binder	binding signal
B1	9.1 ln median PBM intensity, better of two orientations
B2	9.11 ln median PBM intensity, better of two orientations
B3	9.11 ln median PBM intensity, better of two orientations
B4	9.11 ln median PBM intensity, better of two orientations
B5	9.11 ln median PBM intensity, better of two orientations
B6	9.11 ln median PBM intensity, better of two orientations
B7	10.6 ln median PBM intensity, better of two orientations
B8	9.11 ln median PBM intensity, better of two orientations
B9	10.5 ln median PBM intensity, better of two orientations
B10	10.5 ln median PBM intensity, better of two orientations
B11	10.5 ln median PBM intensity, better of two orientations
B12	10.5 ln median PBM intensity, better of two orientations
B13	10.5 ln median PBM intensity, better of two orientations
B14	10.5 ln median PBM intensity, better of two orientations
B15	10.5 ln median PBM intensity, better of two orientations
B16	10.5 ln median PBM intensity, better of two orientations
B17	10.4 ln median PBM intensity, better of two orientations
B18	10.4 ln median PBM intensity, better of two orientations
B19	10.4 ln median PBM intensity, better of two orientations
B20	10.4 ln median PBM intensity, better of two orientations
B21	10.4 ln median PBM intensity, better of two orientations
B22	10.9 ln median PBM intensity, better of two orientations

Binder	binding signal
B23	10.4 ln median PBM intensity, better of two orientations
B24	10.4 ln median PBM intensity, better of two orientations
B25	10.4 ln median PBM intensity, better of two orientations
B26	10.4 ln median PBM intensity, better of two orientations
B27	10.4 ln median PBM intensity, better of two orientations
B28	10.4 ln median PBM intensity, better of two orientations
B29	10.3 ln median PBM intensity, better of two orientations
B30	10.3 ln median PBM intensity, better of two orientations
B31	10.2 ln median PBM intensity, better of two orientations
B32	10.2 ln median PBM intensity, better of two orientations
B33	10.2 ln median PBM intensity, better of two orientations
B34	10.2 ln median PBM intensity, better of two orientations
B35	10.8 ln median PBM intensity, better of two orientations
B36	10.2 ln median PBM intensity, better of two orientations
B37	10.2 ln median PBM intensity, better of two orientations
B38	10.2 ln median PBM intensity, better of two orientations
B39	10.2 ln median PBM intensity, better of two orientations
B40	10.1 ln median PBM intensity, better of two orientations
B41	10.1 ln median PBM intensity, better of two orientations
B42	10.1 ln median PBM intensity, better of two orientations
B43	10.1 ln median PBM intensity, better of two orientations
B44	10.1 ln median PBM intensity, better of two orientations
